The values below come from patent US6867027B1, “RNA polymerase” (The Institute of Physical and Chemical Research, priority 1997, dated 2005).

“Also recorded” adds a separate entry of the source.

The nature of assay [1]: Inhibition of [α-32P]UTP incorporation by 3′-dATP in the transcription reaction (3′-dNTP incorporation rate). It is filed as biochemical. The settings on record: compared with wild type T7 RNA polymerase. How it is done: Ribonucleotide (NTP) and 3′-deoxynucleotide (3′-dNTP) incorporation rates of the mutant T7 RNA polymerase purified in Example 7 were measured as follows.
pBluescript(KS+) plasmid (Stratagene) linearized by reaction with a restriction endonuclease, PvuII, was used as a template for the transcription reaction, and 250 μM each of ATP, CTP, GTP, and UTP, 2 mM of spermidine-(HCl)3, 5 mM of DTT, 40 mM Tris/HCl pH 8.0, 0.1 μl of [α-^32P] UTP (3000 Ci/mmole), and 25 units of the mutant T7 RNA polymerase F644Y/L665P/F667Y were also used for the reaction. For two kinds of reaction mixture (with or without 3′-dATP, final concentration was 100 μM), the reaction was performed at 37° C. for 60 minutes. The whole reaction mixture was spotted on DE81 paper (Whatman), washed three times with phosphate buffer, and dried. The DE81 paper was placed into a scintillation vial, and radioactivity was measured using a scintillation counter (Beckman) for each reaction. Degree of inhibition of the [α-^32P] UTP incorporation was calculated by comparing the values obtained with and without 3′-dATP based on the measured radioactivity. The relative activity obtained from calculated inhibition degree and defined as a relative value to the inhibition degree of the wild type T7 RNA polymerase normalized to 1.000 was shown in Table 1.
The inhibition degree was calculated by using the wild type T7 RNA polymerase, T7 RNA polymerase F644Y, L665P/F667Y obtained in Example 3, mutant T7 RNA polymerase F644Y/L665P, F782Y, F733Y, F646Y or Y639F constructed and purified in the same manner as in Examples 2 and 3 for the reaction instead of the above F644Y/L665P/F667Y mutant, and relative activities are shown in Table 1.
For example, it is meant that the mutant T7 RNA polymerase F644Y/L665P/F667Y is 5.58 times more likely to incorporate 31-dATP in comparison with the wild type enzyme.

For assay [2], the system named is human thyroid-stimulating hormone (hTSH-β) cDNA PCR product. Briefly: Transcriptional sequencing reaction on PCR product of hTSH-β cDNA (Example 9). It counts as biochemical. Particulars: four dye terminators, PCR product template, FIG. 18. The procedure: As the template for PCR, human thyroid-stimulating hormone (hTSH-β) cDNA subcloned into a plasmid derived from BS750 having T7 promoter was used. By using this plasmid […] having hTSH-β with L220 primer (5′-TAACAATTTCACACAGGAAACA-3′ (SEQ ID NO:38)) and 1211 primer (5′-ACGTTGTAAAACGACGGCCAGT-3′ (SEQ ID NO:39)) existing at both sides of the cloning site, PCR reaction was performed in a reaction volume of 20 μl (1 cycle of 94° C. for 2 minutes, 30 cycles of 94° C. for 1 minute, 55° C. for 1 minute, and 72° C. for 1.5 minutes, followed by 72° C. for 5 minutes). The T7 promoter existed in the downstream of 1211 primer of the PCR product obtained from the above PCR reaction.
The transcriptional sequencing reaction was performed by the method of Melton, D. A, [Nucleic Acids Res., 12: 7035-7056 (1984)].
1 μl (about 10 ng) of the above PCR product was used for the sequencing reaction. […]
The dried reaction product was dissolved in 6 μl of formamide/EDTA/Blue dextran loading buffer according to the instruction manual Ver. 1.0 of ABI PRISM 377 DNA Sequencing System available from Perkin-Elmer Japan, and 2 μl of the solution was analyzed by ABI 377 DNA Sequencer and an analysis program (Sequencing Analysis Ver. 3.0) using denatured gel for sequencing analysis which contained 6M urea/4% Long Ranger™ acrylamide solution (FMC) to afford an electropherogram.

B1: F644Y/L665P/F667Y: mutant T7 RNA polymerase introduced with F644Y/L665P/F667Y mutations (protein)
chain: MNTINIAKNDFSDIELAAIPFNTLADHYGERLAREQLALEHESYEMGEARFRKMFERQLKAGEVADNAAAKPLITTLLPKMIARINDWFEEVKAKRGKRPTAFQFLQEIKPEAVAYITIKTTLACLTSADNTTVQAVASAIGRAIEDEARFGRIRDLEAKHFKKNVEEQLNKRVGHVYKKAFMQVVEADMLSKGLLGGEAWSSWHKEDSIHVGVRCIEMLIESTGMVSLHRQNAGVVGQDSETIELAPEYAEAIATRAGALAGISPMFQPCVVPPKPWTGITGGGYWANGRRPLALVRTHSKKALMRYEDVYMPEVYKAINIAQNTAWKINKKVLAVANVITKWKHCPVEDIPAIEREELPMKPEDIDMNPEALTAWKRAAAAVYRKDKARKSRRISLEFMLEQANKFANHKAIWFPYNMDWRGRVYAVSMFNPQGNDMTKGLLTLAKGKPIGKEGYYWLKIHGANCAGVDKVPFPERIKFIEENHENIMACAKSPLENTWWAEQDSPFCFLAFCFEYAGVQHHGLSYNCSLPLAFDGSCSGIQHFSAMLRDEVGGRAVNLLPSETVQDIYGIVAKKVNEILQADAINGTDNEVVTVTDENTGEISEKVKLGTKALAGQWLAYGVTRSVTKRSVMTLAYGSKEYGFRQQVLEDTIQPAIDSGKGPMYTQPNQAAGYMAKLIWESVSVTVVAAVEAMNWLKSAAKLLAAEVKDKKTGEILRKRCAVHWVTPDGFPVWQEYKKPIQTRLNLMFLGQFRLQPTINTNKDSEIDAHKQESGIAPNFVHSQDGSHLRKTVVWAHEKYGIESFALIHDSFGTIPADAANLFKAVRETMVDTYESCDVLADFYDQFADQLHESQLDKMPALPAKGNLNLRDILESDFAFA
As for B1, the “ability for incorporating 3′-dATP, 3′-dGTP, 3′-dCTP, 3′-dUTP and derivatives thereof” value in assay [1] is reported as “the least bias for the 3′-dATP incorporation among the mutant enzymes prepared; also recorded: markedly improved”. The sequencing analysis entry in assay [2] is reported as “Excellent sequencing analysis was possible”.
